Test results from US20150258192A1, “COMPOSITIONS AND METHODS FOR PREVENTING OR TREATING CHRONIC LUNG ALLOGRAFT DYSFUNCTION (CLAD) AND IDIOPATHIC PULMONARY FIBROSIS (IPF)” (priority 2014, published 2015).
No end group written: not given here.

Assays:
Test in all cases: Kinase Profiling Assay
Assay type in all cases: biochemical
Conditions in all cases: peptide 100 μM
PKCβI(h) = PKCβI(h) (Homo sapiens, UniProt P05771)
Procedure, shortened: (§1)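 Each kinase activity was measured in duplicate. Phosphorylation of a positively charged substrate with radiolabeled phosphate from ATP was captured on a negatively charged filter, counted by scintillation and expressed relative to a 100% activity control. MK2 inhibitory peptides were screened for specificity across 266 human kinases.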

Fms(h) = Fms(h) (Homo sapiens, UniProt P07333)
Procedure, shortened: as §1

PASK(h) = PASK(h) (Homo sapiens, UniProt Q96RG2)
Sequence of PASK(h) (Q96RG2 whole entry): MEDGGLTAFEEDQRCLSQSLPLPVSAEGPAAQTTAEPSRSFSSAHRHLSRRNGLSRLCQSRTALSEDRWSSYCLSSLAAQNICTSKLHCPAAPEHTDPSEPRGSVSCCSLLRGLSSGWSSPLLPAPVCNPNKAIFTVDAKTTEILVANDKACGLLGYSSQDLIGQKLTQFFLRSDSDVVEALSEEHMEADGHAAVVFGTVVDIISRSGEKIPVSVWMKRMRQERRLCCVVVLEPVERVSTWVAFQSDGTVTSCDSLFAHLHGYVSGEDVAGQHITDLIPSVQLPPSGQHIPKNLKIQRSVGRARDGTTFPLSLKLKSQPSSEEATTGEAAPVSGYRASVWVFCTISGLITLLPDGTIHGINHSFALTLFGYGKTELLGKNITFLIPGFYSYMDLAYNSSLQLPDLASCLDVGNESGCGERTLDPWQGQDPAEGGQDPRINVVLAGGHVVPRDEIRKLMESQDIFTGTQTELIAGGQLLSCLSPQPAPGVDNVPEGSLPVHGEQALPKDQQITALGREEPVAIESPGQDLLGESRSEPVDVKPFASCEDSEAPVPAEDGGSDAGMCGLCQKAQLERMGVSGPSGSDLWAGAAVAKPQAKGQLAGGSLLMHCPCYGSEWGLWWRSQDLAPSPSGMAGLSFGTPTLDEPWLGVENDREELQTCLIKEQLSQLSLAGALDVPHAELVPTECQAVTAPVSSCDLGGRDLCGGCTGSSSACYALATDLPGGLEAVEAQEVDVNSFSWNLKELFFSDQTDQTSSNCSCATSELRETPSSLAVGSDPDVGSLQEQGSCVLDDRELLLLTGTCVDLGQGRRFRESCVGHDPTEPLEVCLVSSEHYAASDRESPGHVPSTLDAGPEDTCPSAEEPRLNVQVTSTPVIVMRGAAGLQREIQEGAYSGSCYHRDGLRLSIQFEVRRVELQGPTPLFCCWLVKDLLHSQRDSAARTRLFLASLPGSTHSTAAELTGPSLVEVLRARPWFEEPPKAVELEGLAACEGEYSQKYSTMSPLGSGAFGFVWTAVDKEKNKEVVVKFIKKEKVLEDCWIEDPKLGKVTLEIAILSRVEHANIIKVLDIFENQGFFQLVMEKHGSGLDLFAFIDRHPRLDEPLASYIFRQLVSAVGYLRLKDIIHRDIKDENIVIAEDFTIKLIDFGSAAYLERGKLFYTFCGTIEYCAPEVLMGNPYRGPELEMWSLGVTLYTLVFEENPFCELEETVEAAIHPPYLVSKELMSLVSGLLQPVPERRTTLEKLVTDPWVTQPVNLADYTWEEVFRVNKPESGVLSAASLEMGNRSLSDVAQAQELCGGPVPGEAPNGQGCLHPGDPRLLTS
Procedure, shortened: as §1

Abl(T315I)(h) = Abl(T315I)(h) (Homo sapiens, UniProt P00519, T315I)
Procedure, shortened: as §1

Fyn(h) = Fyn(h) (Homo sapiens, UniProt P06241)
Procedure, shortened: as §1

WNK3(h) = WNK3(h) (Homo sapiens, UniProt Q9BYP7)
Procedure, shortened: as §1

GSK3β(h) = biological target: T1, GSK3β(h) (Homo sapiens, UniProt P49841)
T1 construct: purchased Millipore
Procedure, shortened: as §1

EGFR(h) = EGFR(h) (Homo sapiens, UniProt P00533)
Procedure, shortened: as §1

ErbB4(h) = ErbB4(h) (Homo sapiens, UniProt Q15303)
Procedure, shortened: as §1

GRK7(h) = biological target: T2, GRK7(h) (Homo sapiens, UniProt Q8WTQ7)
T2 construct: purchased Millipore
T2 sequence (Q8WTQ7 1-553): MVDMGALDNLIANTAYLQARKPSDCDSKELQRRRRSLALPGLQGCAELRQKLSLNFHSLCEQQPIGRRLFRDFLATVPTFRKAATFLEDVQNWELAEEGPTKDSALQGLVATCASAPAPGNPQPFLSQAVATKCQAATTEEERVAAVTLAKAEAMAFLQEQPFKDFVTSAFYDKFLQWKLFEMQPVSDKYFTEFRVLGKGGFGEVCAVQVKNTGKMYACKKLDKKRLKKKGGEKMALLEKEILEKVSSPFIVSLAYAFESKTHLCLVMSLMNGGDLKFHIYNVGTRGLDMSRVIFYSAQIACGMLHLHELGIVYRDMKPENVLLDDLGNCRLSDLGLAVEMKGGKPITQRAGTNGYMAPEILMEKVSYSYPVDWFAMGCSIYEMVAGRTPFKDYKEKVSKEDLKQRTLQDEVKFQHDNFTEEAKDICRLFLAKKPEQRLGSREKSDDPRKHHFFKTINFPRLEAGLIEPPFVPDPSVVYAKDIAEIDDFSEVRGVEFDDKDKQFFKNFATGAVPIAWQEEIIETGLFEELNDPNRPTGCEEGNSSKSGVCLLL
Procedure, shortened: as §1

TSSK2(h) = biological target: T3, TSSK2(h) (Homo sapiens, UniProt Q96PF2)
T3 sequence (Q96PF2 1-358): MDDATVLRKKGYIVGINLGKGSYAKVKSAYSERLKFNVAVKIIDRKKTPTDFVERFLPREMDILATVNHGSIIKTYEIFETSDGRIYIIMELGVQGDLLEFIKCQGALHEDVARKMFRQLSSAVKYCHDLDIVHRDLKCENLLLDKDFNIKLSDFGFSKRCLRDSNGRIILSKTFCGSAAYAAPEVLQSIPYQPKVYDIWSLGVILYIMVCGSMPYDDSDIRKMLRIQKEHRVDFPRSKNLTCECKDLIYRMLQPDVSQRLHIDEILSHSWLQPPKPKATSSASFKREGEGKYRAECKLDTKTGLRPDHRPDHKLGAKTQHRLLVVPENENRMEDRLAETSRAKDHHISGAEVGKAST
Procedure, shortened: as §1

IRR(h) = biological target: T4, IRR(h) (Homo sapiens, UniProt P14616)
T4 construct: purchased Millipore
T4 sequence (P14616 27-1297): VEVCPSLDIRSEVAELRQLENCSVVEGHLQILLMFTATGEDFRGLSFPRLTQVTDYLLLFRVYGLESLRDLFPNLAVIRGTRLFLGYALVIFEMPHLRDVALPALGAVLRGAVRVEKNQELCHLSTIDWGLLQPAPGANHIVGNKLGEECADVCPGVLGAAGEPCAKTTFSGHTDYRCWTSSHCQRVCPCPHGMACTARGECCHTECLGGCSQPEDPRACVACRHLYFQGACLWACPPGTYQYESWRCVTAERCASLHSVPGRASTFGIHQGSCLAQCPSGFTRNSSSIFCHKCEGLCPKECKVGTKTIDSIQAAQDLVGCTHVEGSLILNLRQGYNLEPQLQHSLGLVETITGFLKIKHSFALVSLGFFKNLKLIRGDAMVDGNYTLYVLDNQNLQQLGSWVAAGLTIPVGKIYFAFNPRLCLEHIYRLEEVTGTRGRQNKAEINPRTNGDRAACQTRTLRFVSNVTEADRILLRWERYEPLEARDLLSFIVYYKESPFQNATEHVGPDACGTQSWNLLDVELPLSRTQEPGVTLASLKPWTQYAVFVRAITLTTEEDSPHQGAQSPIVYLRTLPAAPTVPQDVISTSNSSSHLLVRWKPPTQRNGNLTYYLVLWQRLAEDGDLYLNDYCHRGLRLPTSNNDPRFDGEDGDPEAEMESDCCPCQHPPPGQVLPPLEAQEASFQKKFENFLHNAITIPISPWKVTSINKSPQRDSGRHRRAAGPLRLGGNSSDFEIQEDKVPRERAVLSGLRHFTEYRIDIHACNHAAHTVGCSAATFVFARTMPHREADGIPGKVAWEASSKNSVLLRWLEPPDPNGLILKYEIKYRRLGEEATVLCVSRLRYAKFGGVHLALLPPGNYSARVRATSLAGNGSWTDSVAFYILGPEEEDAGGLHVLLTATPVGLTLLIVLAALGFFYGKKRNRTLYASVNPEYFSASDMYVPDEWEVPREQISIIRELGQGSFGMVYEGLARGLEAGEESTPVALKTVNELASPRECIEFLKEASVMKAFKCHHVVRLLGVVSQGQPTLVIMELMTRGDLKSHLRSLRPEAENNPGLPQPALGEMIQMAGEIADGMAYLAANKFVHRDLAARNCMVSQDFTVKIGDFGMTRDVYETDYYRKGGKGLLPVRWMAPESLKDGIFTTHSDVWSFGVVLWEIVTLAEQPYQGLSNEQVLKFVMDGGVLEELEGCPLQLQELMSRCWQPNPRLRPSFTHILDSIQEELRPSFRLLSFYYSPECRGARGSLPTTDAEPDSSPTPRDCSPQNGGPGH
Procedure, shortened: as §1

SAPK2a(T106M)(h) = biological target: T5, SAPK2a(T106M)(h) (Homo sapiens, UniProt Q16539, T106M)
T5 construct: purchased Millipore
Procedure, shortened: as §1

BTK(h) = BTK(h) (Homo sapiens, UniProt Q06187)
Sequence of BTK(h) (Q06187 whole entry): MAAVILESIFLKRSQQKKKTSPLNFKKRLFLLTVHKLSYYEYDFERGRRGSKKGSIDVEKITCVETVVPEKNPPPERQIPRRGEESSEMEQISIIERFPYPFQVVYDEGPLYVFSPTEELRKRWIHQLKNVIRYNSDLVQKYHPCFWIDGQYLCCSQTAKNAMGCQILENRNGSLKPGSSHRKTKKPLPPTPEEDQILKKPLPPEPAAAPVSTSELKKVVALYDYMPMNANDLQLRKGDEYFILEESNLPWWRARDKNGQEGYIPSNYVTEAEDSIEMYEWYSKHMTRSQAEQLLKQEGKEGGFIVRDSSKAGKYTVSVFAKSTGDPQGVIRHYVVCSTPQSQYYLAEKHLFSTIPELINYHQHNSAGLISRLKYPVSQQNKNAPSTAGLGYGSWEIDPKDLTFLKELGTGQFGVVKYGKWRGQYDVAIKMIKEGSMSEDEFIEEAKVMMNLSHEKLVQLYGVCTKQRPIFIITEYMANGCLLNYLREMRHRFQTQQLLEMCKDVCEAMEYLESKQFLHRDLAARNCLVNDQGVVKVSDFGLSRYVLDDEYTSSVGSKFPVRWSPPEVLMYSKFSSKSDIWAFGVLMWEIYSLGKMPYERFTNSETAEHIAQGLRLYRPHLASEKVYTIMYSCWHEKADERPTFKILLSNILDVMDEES
Procedure, shortened: as §1

CHK2(I157T)(h) = CHK2(I157T)(h) (Homo sapiens, UniProt O96017, I157T)
Sequence of CHK2(I157T)(h) (O96017 whole entry I157T): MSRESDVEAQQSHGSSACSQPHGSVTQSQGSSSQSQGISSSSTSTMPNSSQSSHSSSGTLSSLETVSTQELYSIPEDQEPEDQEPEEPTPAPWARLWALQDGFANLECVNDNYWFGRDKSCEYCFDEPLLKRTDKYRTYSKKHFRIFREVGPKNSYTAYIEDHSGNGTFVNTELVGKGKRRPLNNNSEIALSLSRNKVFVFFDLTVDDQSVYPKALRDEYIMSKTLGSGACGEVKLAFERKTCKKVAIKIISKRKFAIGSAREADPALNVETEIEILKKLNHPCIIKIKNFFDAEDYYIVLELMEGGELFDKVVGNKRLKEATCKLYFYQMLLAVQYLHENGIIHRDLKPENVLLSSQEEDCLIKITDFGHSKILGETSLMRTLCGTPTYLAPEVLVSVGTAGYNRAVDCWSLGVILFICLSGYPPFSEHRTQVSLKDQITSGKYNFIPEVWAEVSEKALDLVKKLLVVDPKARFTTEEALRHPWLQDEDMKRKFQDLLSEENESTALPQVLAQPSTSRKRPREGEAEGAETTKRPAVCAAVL
Procedure, shortened: as §1

FGFR1(h) = FGFR1(h) (Homo sapiens, UniProt P11362)
Procedure, shortened: as §1

Rsk1(h) = Rsk1(h) (Homo sapiens, UniProt Q15418)
Sequence of Rsk1(h) (Q15418 whole entry): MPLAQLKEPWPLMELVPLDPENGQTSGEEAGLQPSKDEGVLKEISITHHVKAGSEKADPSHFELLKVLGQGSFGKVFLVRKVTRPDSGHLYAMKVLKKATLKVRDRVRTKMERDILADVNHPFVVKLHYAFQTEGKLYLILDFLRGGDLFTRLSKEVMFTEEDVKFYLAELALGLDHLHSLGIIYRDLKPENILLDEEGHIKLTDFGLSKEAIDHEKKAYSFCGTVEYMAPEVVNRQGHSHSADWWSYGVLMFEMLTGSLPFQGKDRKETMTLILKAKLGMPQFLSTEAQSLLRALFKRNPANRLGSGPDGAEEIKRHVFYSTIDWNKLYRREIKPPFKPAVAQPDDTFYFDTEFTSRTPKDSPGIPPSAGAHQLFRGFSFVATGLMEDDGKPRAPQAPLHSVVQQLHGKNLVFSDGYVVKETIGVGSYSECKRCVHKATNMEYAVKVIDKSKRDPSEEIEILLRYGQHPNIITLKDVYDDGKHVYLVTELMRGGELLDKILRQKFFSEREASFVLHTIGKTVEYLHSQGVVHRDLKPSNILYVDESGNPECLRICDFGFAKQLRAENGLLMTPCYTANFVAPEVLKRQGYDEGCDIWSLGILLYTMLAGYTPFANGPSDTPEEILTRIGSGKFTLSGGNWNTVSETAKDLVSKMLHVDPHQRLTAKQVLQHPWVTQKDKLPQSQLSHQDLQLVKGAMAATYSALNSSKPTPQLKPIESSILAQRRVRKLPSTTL
Procedure, shortened: as §1

BTK(R28H)(h) = BTK(R28H)(h) (Homo sapiens, UniProt Q06187, R28H)
Sequence of BTK(R28H)(h) (Q06187 whole entry R28H): as the sequence (Q06187 whole entry) above, with R28H counted along it
Procedure, shortened: as §1

Abl(Y253F)(h) = Abl(Y253F)(h) (Homo sapiens, UniProt P00519, Y253F)
Procedure, shortened: as §1

CHK2(h) = CHK2(h) (Homo sapiens, UniProt O96017)
Sequence of CHK2(h) (O96017 whole entry): as the sequence (O96017 whole entry I157T) above, with T157I counted along it
Procedure, shortened: as §1

ROCK-I(h) = ROCK-I(h) (Homo sapiens, UniProt Q13464)
Procedure, shortened: as §1

CDK2/cyclinE(h) = CDK2/cyclinE(h) (Homo sapiens, UniProt P24941)
Procedure, shortened: as §1

MAPK2(h) = biological target: T6, MAPK2(h) (Homo sapiens, UniProt P28482)
T6 construct: purchased Millipore
T6 sequence (P28482 whole entry): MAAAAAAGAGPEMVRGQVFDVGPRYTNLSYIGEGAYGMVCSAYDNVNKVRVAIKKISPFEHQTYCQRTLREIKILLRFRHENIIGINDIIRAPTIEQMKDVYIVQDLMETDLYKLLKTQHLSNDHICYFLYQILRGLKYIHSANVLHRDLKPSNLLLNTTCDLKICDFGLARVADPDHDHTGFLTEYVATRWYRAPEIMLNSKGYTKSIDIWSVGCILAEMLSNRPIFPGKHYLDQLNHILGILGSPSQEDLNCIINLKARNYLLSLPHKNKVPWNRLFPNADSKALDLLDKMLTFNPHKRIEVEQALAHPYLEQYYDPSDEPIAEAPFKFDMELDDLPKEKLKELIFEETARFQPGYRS
Procedure, shortened: as §1

Sequence | % activity (PKCβI(h)) | % activity (Fms(h)) | % activity (PASK(h)) | % activity (Abl(T315I)(h)) | % activity (Fyn(h)) | % activity (WNK3(h)) | % activity (GSK3β(h)) | % activity (EGFR(h)) | % activity (ErbB4(h)) | % activity (GRK7(h)) | % activity (TSSK2(h)) | % activity (IRR(h)) | % activity (SAPK2a(T106M)(h)) | % activity (BTK(h)) | % activity (CHK2(I157T)(h)) | % activity (FGFR1(h)) | % activity (Rsk1(h)) | % activity (BTK(R28H)(h)) | % activity (Abl(Y253F)(h)) | % activity (CHK2(h)) | also measured
YARAAARQARAKALNRQLGVA (Mammal) [MMI-0200] | 98% | 92% | 60% | 108% | 75% | 97% | 132% | 83% | 82% | 124% | 91% | 69% | 100% | 100% | 85% | 97% | – | – | – | – | –
YARAAARQARAKALARQLGVAA [MMI-0100] | – | 89% | 81% | 98% | – | 100% | – | – | 73% | – | – | 85% | 101% | – | 97% | 120% | 86% | 91% | – | – | –
HRRIKAWLKKIKALARQLGVAA (Mammal) [MMI-0500] | 1% | 14% | 9% | 16% | 83% | 9% | 238% | -1% | 2% | 93% | 92% | 10% | 32% | 18% | 3% | 18% | 34% | 10% | 29% | 13% | % activity (ROCK-I(h)): 17%; % activity (CDK2/cyclinE(h)): 19%; % activity (MAPK2(h)): 60%
KAFAKLAARLYRKALARQLGVAA [MMI-0400] | 78% | 37% | 28% | – | 54% | 74% | 202% | 16% | 0% | 100% | 94% | 8% | 99% | 94% | 41% | 59% | 54% | 24% | 78% | 54% | % activity (ROCK-I(h)): 73%; % activity (CDK2/cyclinE(h)): 83%; % activity (MAPK2(h)): 93%
FAKLAARLYRKALARQLGVAA [MMI-0300] | 78% | 45% | 29% | 97% | 74% | 77% | 205% | 21% | 40% | 122% | 98% | 8% | 97% | – | 43% | 55% | 46% | 74% | 86% | 66% | % activity (ROCK-I(h)): 79%; % activity (CDK2/cyclinE(h)): 94%; % activity (MAPK2(h)): 98%
